One molecule from article PMC12945441 (2022) can be followed below.

For the test, the target named is SARS-CoV-2 Wuhan-Hu-1 receptor-binding domain (SARS-CoV-2 Wuhan-Hu-1). The experiment in a line: ELISA. For orientation: An ELISA detects its analyte on a solid surface through an enzyme-linked reagent.

B1: S2X324 mAb (antibody, V domains shown)
VH: QITLKESGPTLVKPTQTLTLTCTFSGFSVTTSGVGVGWIRQPPGKALEYLALIYWDDDKRYSTSLKSRLTITKDTSKNQVVLTMTNMDPVDTATYYCARHTIPSIFDYWGQGILVTVSS
VL: QPVLTQPASVSGSPGQSITISCTATSSDVGNYNYVSWYQHHPGKAPKLMIYEVSNRPSGVSNRFSGSKSGNTASLTISGLQAEDEADYYCSSYTSSSLLFGGGTKLTVL
In general, IC50 refers to the concentration that inhibits the measured activity by half. In the case of B1, the half-inhibitory concentration (IC50) amounted to 0.0267 µg/mL.
